Article PMC9834408, “The SPOC domain is a phosphoserine binding module that bridges transcription machinery with co- and post-transcriptional regulators” (Nature Communications, 2023)

Legend:
[1] = target: WTAP peptide (first 19 N-terminal amino acids) phosphorylated at S14 (UniProt Q15007); assay: fluorescence polarisation; fluorescence anisotropy; 90 nM labelled peptide (Atto-488 on CTD peptides, FAM on NCoR and FMR1 peptides) titrated with increasing concentrations of SPOC domain; 20 °C; 25 mM Tris-Cl pH 7.4, 25 mM NaCl, 1 mM DTT; three independent dilution series
2×S5P CTD diheptapeptide = assay: as above

SHARP SPOC (3496–3664 aa), sequence (Q96T58 3496-3664): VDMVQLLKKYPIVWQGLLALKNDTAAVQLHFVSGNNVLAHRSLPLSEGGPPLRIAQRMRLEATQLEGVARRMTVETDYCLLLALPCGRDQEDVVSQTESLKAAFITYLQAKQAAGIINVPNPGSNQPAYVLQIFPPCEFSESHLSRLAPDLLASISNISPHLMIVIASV

Row | Kd [1] [µM] | Kd (2×S5P CTD diheptapeptide) [µM] | Substance
1 | 21.5 |  | RBM15 SPOC (775–960 aa) (from UniProt Q96T37 775-960) (domain or fragment)
2 |  | 20.6 | SHARP SPOC (3496–3664 aa) (from UniProt Q96T58 3496-3664) (domain or fragment)
